Reference: US11160869B2 (priority 2019, dated 2021)

Key:
[1] = Evaluation of chromatography modes (CEX, HIC): protein stability; format: physicochemical
Experimental: Several modes of chromatography were evaluated during process development.

[2] = Intracolonic spray in NHP: IL-1Ra, pSTAT3, construct and IL-10 in tissue and serum; format: in vivo, cynomolgus monkeys
Description: This was achieved using a colonoscope with an associated spray nozzle. In this way, refined information for onset and duration of IL-1Ra induction could be obtained at specific local doses. […] The variability of pSTAT3/total STAT3 detected was consistent with tissue capture and stability challenges in this in vivo model. Measurement of tissue delivery construct levels had similar tissue capture and stability challenges, showing low and variable amounts in the tissue samples collected (FIG. 143). […] Since IL-10 can induce cells to produce more IL-10, we also looked for induced IL-10. […] It is important to note, due to the similarity of human and NHP IL-10, that ELISA values shown could also include hIL-10 that has somehow separated from the carrier domain of the delivery construct molecule. While this cannot be ruled out, no other data supports this as an outcome and it appears likely that the majority, if not all, tissue and serum IL-10 measured represents an NHP source.

STAT3 [3] = experiment: pSTAT3/total STAT3 in colon tissue of non-inflamed mice (ELISA MSD); format: in vivo; conditions: construct 1 mg/kg; rhIL-10 0.9 mg/kg; oral
[4] = Oral gavage 10 mg/kg in non-inflamed mice: hIL-10 in serum and tissue, serum IL-1Ra; format: in vivo
[5] = Pan-colonic administration via sigmoidoscopy in NHP: plasma PK and PD; format: in vivo, cynomolgus monkeys
Experimental: IL-10 delivery construct solution (at concentrations of 0.1, 0.3 and 1.0 mg/mL for the low, mid and high-dose groups respectively) was administered via the rectal route using sigmoidoscopy and a syringe connected to a spray nozzle with a 360° spray pattern. Serial biopsy samples were collected by sigmoidoscopy (pre-dose, 0.25, 0.5, 0.75, 8 and 24-28 hours post dose). Serial plasma samples from 0 min pre-dose to between 24-28 hours post-dose were collected for analysis for the IL-10 delivery construct.

[6] = PK/PD by route (oral, subcutaneous, intravenous) in NHP; format: in vivo, Macaca fascicularis
Description: For oral administration the IL-10 delivery construct was formulated in size 0 enteric coated capsules. For intravenous or subcutaneous administration it was formulated as a liquid in DS lyo formulation.

STAT3 [7] = experiment: In vivo pSTAT3 induction in lamina propria, immunofluorescence confocal microscopy; parameters: species or system Balb/C mice
Experimental: In vivo studies in mice were performed where the biological activity of human IL-10 following transcytosis was assessed for its ability to stimulate the mouse IL-10 receptor and increase phosphorylation of STAT3 (pSTAT3) in cells within the lamina propria.
An extensive amount of rhIL-10 (SEQ ID NO: 5) was trafficked through enterocytes. Additionally, there were a population of lymphocyte-like cells at the basolateral surface of enterocytes and within the lamina propria that were pSTAT3 positive.
Entire intestines of mice were isolated and processed as a “swiss role” and localization of pSTAT3 was detected by immunofluorescence confocal microscopy (FIG. 110).

[8] = Compression force screening, tablet properties and dimer recovery on dissolution; format: physicochemical; conditions: F1 and F2 tablets
Experimental: Various compression forces were used to create F1 tablets (TABLE 31) and F2 tablets (TABLE 32). Dimer purity of the target construct was also examined following compaction into a tablet. […] Dimer recovery was also assessed following dissolution of various tablets at pH 7.0 (FIGS. 20A-20D).
An additional tablet (F3) was created, which was similar to an F1 tablet but with glyceryl dibehenate in place of magnesium stearate (TABLE 33). This substitution was made due to incompatibility of magnesium stearate in dissolution of target constructs in solution.

[9] = Single oral capsule dose in NHP: plasma total IL-10; format: in vivo, Macaca fascicularis; conditions: for plasma total IL-10 Tmax: oral
Description: IL-10 delivery constructs (SEQ ID NO: 5) and caffeine were filled by weight into size-1 Capsugel V-Cap Hydroxypropyl Methylcellulose (HPMC) capsules, for oral administration. The capsules were then successively coated in a pan spray coater with three layers of polymers. The first and third layer were thin coatings of HPMC, the first to seal the crease where the capsule shells come together, and the third to minimize sticking of the capsules to each other. The second coating layer was comprised of a 50:50 mixture of Eudragit® (Evonik Industries AG) enteric acrylic polymers FS 30 D and L 30 D-55, designed to dissolve and allow the capsule to open at pH 6.5.
The MSD Small Spot IL-10 plate was washed 3 times with PBST before use. Standards were prepared in Diluent 2 (MSD Cat No R51BB), and samples diluted 2-fold in Diluent 2. Standards and diluted samples were added to the assay plate and the plate incubated for 2 hours at room temperature with shaking. The plate was washed 3 times with PBST and 1× SULFO TAG anti-huIL-10. Antibody was added to the plate before incubation for 1 hour at room temperature with shaking. Following a wash step, 2×MSD Read buffer was added to the wells of the plate and the plate is read in the MSD Sector Imager 600 plate reader. The lower limit of detection of each analyte is defined as 2.5 standard deviation above background.
IL-10 delivery construct dosing at multiple fixed doses in non-naïve adult male Macaca fascicularis was conducted by Valley Biosystems (West Sacramento, Calif.). […] Dosing groups are described in TABLE 45.
Animals were fasted until after the 3 hour blood sample collection, when food was given. For dosing, the animals were manually restrained and a bite block placed between the jaws. A pill gun containing the dosing capsule was inserted into the back of the oral cavity and the capsule released. Up to 4 capsules were administered consecutively and a small amount of water given to induce swallowing. Once the administration of the dose was confirmed, the bite block was removed and the head released.
Blood samples were collected in K2EDTA tubes from each animal pre-dose and at 0.5, 1, 2, 3, 4, 5, 6, 7, 8, and 24 hours post-dose. Animals were returned to home cages following the 2-hour sample collection. Following physical restraint, blood samples were collected via direct venous puncture using a cephalic, femoral or saphenous vein, which were processed to plasma and stored frozen at −60° C. until shipment.

B1: IL-10 delivery construct: recombinant homodimeric fusion protein: N-terminal methionine, cholix386 domain, polyGlySer spacer, recombinant human IL-10 (protein)
chain: MVEEALNIFDECRSPCSLTPEPGKPIQSKLSIPSDVVLDEGVLYYSMTINDEQNDIKDEDKGESIITIGEFATVRATRHYVNQDAPFGVIHLDITTENGTKTYSYNRKEGEFAINWLVPIGEDSPASIKISVDELDQQRNIIEVPKLYSIDLDNQTLEQWKTQGNVSFSVTRPEHNIAISWPSVSYKAAQKEGSRHKRWAHWHTGLALCWLVPMDAIYNYITQQNCTLGDNWFGGSYETVAGTPKVITVKQGIEQKPVEQRIHFSKGNAMSALAAHRVCGVPLETLARSRKPRDLTDDLSCAYQAQNIVSLFVATRILFSHLDSVFTLNLDEQEPEVAERLSDLRRINENNPGMVTQVLTVARQIYNDYVTHHPGLTPEQTSAGAQAGGGGSGGGGSGGGGSPGQGTQSENSCTHFPGNLPNMLRDLRDAFSRVKTFFQMKDQLDNLLLKESLLEDFKGYLGCQALSEMIQFYLEEVMPQAENQDPDIKAHVNSLGENLKTLRLRLRRCHRFLPCENKSKAVEQVKNAFNKLQEKGIYKAMSEFDIFINYIEAYMTMKIRN
modifications: homodimer
behaviour at relatively low pH (cation exchange) [1]: precipitate at a pH below the pI of the target construct (pH 5.5) | behaviour in high salt (hydrophobic interaction chromatography) [1]: unstable in the high salt | serum levels of IL-10 [2]: increased in a dose-dependent manner | serum levels of the delivery construct ([2]; 1, 3, or 10 mg colonic spray): below the assay detection limit | time to reach the lamina propria following luminal application ([2]; cynomolgus monkey, in vivo): ~15 min | tissue IL-10 levels ([2]; within 15 min after spray): dose-dependent and transient increases | increase in ratio of pSTAT3 to total STAT3 (STAT3 [3]): approximately 50% | onset of IL-1Ra induction ([4]; 10 mg/kg): 2.5-4 h post oral gavage | hIL-10 in small intestinal lysates relative to colonic lysates ([4]; 10 mg/kg oral gavage): ~10 fold higher | serum IL-1Ra levels ([4]; 10 mg/kg oral gavage, 4 h): significantly increased | plasma IL-10 delivery construct concentration relative to IL-10 ([5]; 3 mg and 10 mg doses): 10 fold lower | systemic IFN-γ, IL-1β, IL-2, IL-8 ([5]; 1, 3, 10 mg): did not lead to an increase | plasma IL-1Ra ([5]; 1, 3 and 10 mg): induction of the plasma concentration of IL-1Ra was observed at all three doses | systemic IL-6 ([5]; 3 and 10 mg groups): moderately induced | time of maximal plasma IL-1Ra concentration ([5]; cynomolgus monkey, in vivo): 3 to 4 h | time to detection of total IL-10 in plasma ([5]; single dose 1, 3 or 10 mg pan-colonic): ≤ 15 min | systemic levels of IL-10 after oral treatment ([6]; oral 1 mg or 5 mgs vs SC 0.2 mg/kg, IV 0.05 mg/kg): minimal systemic levels of IL-10 | IL-1Ra/IL-1β ratio ([6]; subcutaneous or intravenous administration): minimal effect | phosphorylation of STAT3 in cells within the lamina propria (STAT3 [7]; intraluminal injection into jejunum): increased phosphorylation of STAT3 | IL-10 activity (pSTAT3) along the intestine (STAT3 [7]; oral gavage): demonstrated along the length of intestine | robustness of dimer to compaction into tablet [8]: robust to compaction and granulation, although some aggregation was observed in final tablet form | plasma total IL-10 Tmax ([9]; 1 mg): 4 h | plasma total IL-10 Tmax ([9]; 4 mg): 3 h | plasma total IL-10 Tmax ([9]; 20.5 mg): 2 h | plasma total IL-10 Tmax ([9]; 82 mg): 2 h | time at which plasma total IL-10 had returned to baseline ([9]; all doses): 6 hours post-dose
